Consider 16 variants from the supplement of paper PMC7125110.

± gives the standard error. For some assays here: Fewer inactive variants are shown than the library holds.

First the molecules themselves.
B1: glmS ribozyme (parent)
chain: AUAAAAGCGCCAGAACUACAGAAAUGUAGUUGACGAGGAGGAGGUUUAUCGAAUUUUCGGCGGAUGCCUCCAAA

Details in all cases: with glucosamine-6-phosphate
Variants of B1 are the subject of data set [1]. The data set can be described thus: kcat; higher = faster cleavage; RNA array. A digest of the protocol:
(§1)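 The measurements used barcoded ribozyme variants on sequenced MiSeq chips, transcribed in situ by E. coli RNA polymerase and tracked at 37 °C with a hybridised Cy3 probe. Glucosamine-6-phosphate, 40 μM to 10 mM in HEPES/KCl/Mg(OAc)2 buffer, was flowed in while tiles were imaged over ~14 h. Baseline-normalised signals, also normalised to non-cleaving reference variants, gave per-tile medians that were fit to one- or two-exponential decays for kobs. kcat and KM resulted from weighted Michaelis–Menten fits across concentrations.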

Data set [2] covers variants of B1. The data set can be described thus: KM; higher = weaker cofactor use; RNA array. A digest of the protocol:
as §1

Data set [3] covers variants of B1. The data set can be described thus: self-cleavage kobs at 40 uM GlcN6P; higher = faster cleavage; RNA array. A digest of the protocol:
as §1

In data set [4] the parent is B1. The data set can be described thus: self-cleavage kobs at 160 uM GlcN6P; higher = faster cleavage; RNA array. The procedure, abridged:
as §1

The variants in data set [5] derive from B1. The experiment in a line: self-cleavage kobs at 640 uM GlcN6P; higher = faster cleavage; RNA array. A digest of the protocol: as §1
Variants of B1 are the subject of data set [6]. The experiment in a line: self-cleavage kobs at 2500 uM GlcN6P; higher = faster cleavage; RNA array. The procedure, abridged: as §1
Data set [7] covers variants of B1. The data set can be described thus: self-cleavage kobs at 10000 uM GlcN6P; higher = faster cleavage; RNA array. A digest of the protocol: as §1

For G51A C68G, the kcat in the data set with glucosamine-6-phosphate [1] was found to be 3.03e-05 ± 1.4e-05 s⁻¹.
With G29C C68U, the kcat with glucosamine-6-phosphate [1] is 0.000269 ± 5.9e-05 s⁻¹. In addition, the KM with glucosamine-6-phosphate [2] was found to be 959 ± 460 µM. The “self-cleavage kobs at 40 uM GlcN6P” value in the data set with glucosamine-6-phosphate [3] was 2.38e-05 ± 1.1e-05 s⁻¹. Besides, in the data set with glucosamine-6-phosphate [4], the “self-cleavage kobs at 160 uM GlcN6P” value came out at 4.12e-05 ± 5.7e-06 s⁻¹. In addition, in the data set with glucosamine-6-phosphate [5], the “self-cleavage kobs at 640 uM GlcN6P” value came out at 0.000112 ± 8.7e-06 s⁻¹. The “self-cleavage kobs at 2500 uM GlcN6P” value with glucosamine-6-phosphate [6] turned out to be 0.000172 ± 1.2e-05 s⁻¹. Further, in the data set with glucosamine-6-phosphate [7], the “self-cleavage kobs at 10000 uM GlcN6P” value came to 0.000368 ± 3.6e-05 s⁻¹.
Take C16G U57A: the kcat in the data set with glucosamine-6-phosphate [1] is 5.68e-05 ± 5.7e-06 s⁻¹. In addition, in the data set with glucosamine-6-phosphate [2], the KM is 1570 ± 780 µM. Also, the “self-cleavage kobs at 2500 uM GlcN6P” value with glucosamine-6-phosphate [6] was determined as 3.99e-05 ± 1.7e-05 s⁻¹. In the data set with glucosamine-6-phosphate [7], the “self-cleavage kobs at 10000 uM GlcN6P” value was determined as 4.85e-05 ± 8.9e-06 s⁻¹.
The matching figures for A14G A52C: 4.48e-05 ± 2.1e-06 s⁻¹, 3920 ± 400 µM, 1.73e-05 ± 7.9e-06 s⁻¹ and 3.23e-05 ± 1.3e-05 s⁻¹.
Take A15U G51C: the kcat with glucosamine-6-phosphate [1] was < 1e-05 s⁻¹. Moreover, the “self-cleavage kobs at 40 uM GlcN6P” value with glucosamine-6-phosphate [3] is < 1e-05 s⁻¹. Moreover, in the data set with glucosamine-6-phosphate [5], the “self-cleavage kobs at 640 uM GlcN6P” value is < 1e-05 s⁻¹.
Take G38U C68G: the turnover number (kcat) in the data set with glucosamine-6-phosphate [1] stood at 0.000246 ± 5.7e-05 s⁻¹. In addition, the KM with glucosamine-6-phosphate [2] amounted to 108 ± 52 µM. The “self-cleavage kobs at 40 uM GlcN6P” value with glucosamine-6-phosphate [3] is 6.28e-05 ± 1e-05 s⁻¹. The “self-cleavage kobs at 160 uM GlcN6P” value with glucosamine-6-phosphate [4] came out at 0.000349 ± 0.00017 s⁻¹. The “self-cleavage kobs at 640 uM GlcN6P” value with glucosamine-6-phosphate [5] is 0.000294 ± 4.2e-05 s⁻¹. Further, the “self-cleavage kobs at 10000 uM GlcN6P” value in the data set with glucosamine-6-phosphate [7] is 0.000182 ± 4e-05 s⁻¹.
For the variant G37U A52G, in the data set with glucosamine-6-phosphate [1], the kcat was < 1e-05 s⁻¹. The “self-cleavage kobs at 40 uM GlcN6P” value with glucosamine-6-phosphate [3] was < 1e-05 s⁻¹. Besides, the “self-cleavage kobs at 640 uM GlcN6P” value in the data set with glucosamine-6-phosphate [5] is < 1e-05 s⁻¹.
A12U A33C: the kcat with glucosamine-6-phosphate [1] came out at 0.00204 ± 0.00049 s⁻¹. For the same variant, the KM in the data set with glucosamine-6-phosphate [2] stood at 7810 ± 2600 µM. Moreover, the “self-cleavage kobs at 160 uM GlcN6P” value with glucosamine-6-phosphate [4] worked out at 2.87e-05 ± 1.3e-05 s⁻¹. The “self-cleavage kobs at 640 uM GlcN6P” value in the data set with glucosamine-6-phosphate [5] was 0.000178 ± 3.4e-05 s⁻¹. For the same variant, the “self-cleavage kobs at 2500 uM GlcN6P” value with glucosamine-6-phosphate [6] came to 0.000501 ± 9.3e-05 s⁻¹. Besides, the “self-cleavage kobs at 10000 uM GlcN6P” value with glucosamine-6-phosphate [7] came out at 0.00113 ± 0.00019 s⁻¹.
A33U C70G: in the data set with glucosamine-6-phosphate [1], the kcat turned out to be 1.5e-05 ± 1.8e-06 s⁻¹.
For G40U C67U, the kcat with glucosamine-6-phosphate [1] came out at 7.51e-05 ± 5.3e-06 s⁻¹. In addition, the KM with glucosamine-6-phosphate [2] worked out at 1470 ± 410 µM. The “self-cleavage kobs at 40 uM GlcN6P” value with glucosamine-6-phosphate [3] is < 1e-05 s⁻¹. Further, the “self-cleavage kobs at 640 uM GlcN6P” value with glucosamine-6-phosphate [5] was determined as 2.67e-05 ± 8.3e-06 s⁻¹. In the data set with glucosamine-6-phosphate [6], the “self-cleavage kobs at 2500 uM GlcN6P” value was found to be 4.31e-05 ± 8.2e-06 s⁻¹. Besides, in the data set with glucosamine-6-phosphate [7], the “self-cleavage kobs at 10000 uM GlcN6P” value turned out to be 6.64e-05 ± 6e-06 s⁻¹.
As to A14G A15U U30G, the kcat with glucosamine-6-phosphate [1] worked out at 0.0196 ± 0.0037 s⁻¹. For the same variant, in the data set with glucosamine-6-phosphate [2], the KM was determined as 263 ± 69 µM. The “self-cleavage kobs at 40 uM GlcN6P” value with glucosamine-6-phosphate [3] was determined as 0.00266 ± 0.00038 s⁻¹. Further, the “self-cleavage kobs at 160 uM GlcN6P” value in the data set with glucosamine-6-phosphate [4] was 0.00652 ± 0.0021 s⁻¹. In the data set with glucosamine-6-phosphate [5], the “self-cleavage kobs at 640 uM GlcN6P” value worked out at 0.0127 ± 0.0037 s⁻¹. Besides, the “self-cleavage kobs at 2500 uM GlcN6P” value with glucosamine-6-phosphate [6] came out at 0.0232 ± 0.0085 s⁻¹.
G37A C71U: the kcat with glucosamine-6-phosphate [1] stood at 0.00282 ± 0.00026 s⁻¹. For the same variant, in the data set with glucosamine-6-phosphate [2], the KM came out at 2690 ± 370 µM. In the data set with glucosamine-6-phosphate [3], the “self-cleavage kobs at 40 uM GlcN6P” value is 4.51e-05 ± 4.2e-06 s⁻¹. Besides, the “self-cleavage kobs at 160 uM GlcN6P” value with glucosamine-6-phosphate [4] was 0.000172 ± 1.9e-05 s⁻¹. Also, in the data set with glucosamine-6-phosphate [5], the “self-cleavage kobs at 640 uM GlcN6P” value came out at 0.000478 ± 4.3e-05 s⁻¹. Also, in the data set with glucosamine-6-phosphate [6], the “self-cleavage kobs at 2500 uM GlcN6P” value came to 0.0015 ± 0.00028 s⁻¹. For the same variant, the “self-cleavage kobs at 10000 uM GlcN6P” value in the data set with glucosamine-6-phosphate [7] is 0.00225 ± 0.00014 s⁻¹.
Take A14G A64G: the kcat in the data set with glucosamine-6-phosphate [1] amounted to 0.0806 ± 0.028 s⁻¹. Moreover, in the data set with glucosamine-6-phosphate [2], the Michaelis constant (KM) worked out at 2030 ± 810 µM. In the data set with glucosamine-6-phosphate [3], the “self-cleavage kobs at 40 uM GlcN6P” value worked out at 0.00184 ± 0.00024 s⁻¹. Also, in the data set with glucosamine-6-phosphate [4], the “self-cleavage kobs at 160 uM GlcN6P” value was 0.00428 ± 0.001 s⁻¹. Besides, the “self-cleavage kobs at 640 uM GlcN6P” value with glucosamine-6-phosphate [5] came out at 0.0212 ± 0.0065 s⁻¹. Also, the “self-cleavage kobs at 10000 uM GlcN6P” value in the data set with glucosamine-6-phosphate [7] amounted to 0.0677 ± 0.017 s⁻¹.
As to A14G G37C A48G, in the data set with glucosamine-6-phosphate [1], the kcat came out at 1.62e-05 ± 5.8e-06 s⁻¹.
For C11U A39U, the kcat with glucosamine-6-phosphate [1] came to 0.00145 ± 0.00027 s⁻¹. Besides, in the data set with glucosamine-6-phosphate [2], the KM was 3780 ± 1200 µM. For the same variant, the “self-cleavage kobs at 160 uM GlcN6P” value with glucosamine-6-phosphate [4] is 4.38e-05 ± 1.1e-05 s⁻¹. In addition, the “self-cleavage kobs at 640 uM GlcN6P” value in the data set with glucosamine-6-phosphate [5] came to 0.000277 ± 4.8e-05 s⁻¹. Further, the “self-cleavage kobs at 2500 uM GlcN6P” value with glucosamine-6-phosphate [6] was 0.000641 ± 0.00011 s⁻¹. Moreover, the “self-cleavage kobs at 10000 uM GlcN6P” value in the data set with glucosamine-6-phosphate [7] was 0.00102 ± 0.00011 s⁻¹.
Turning to A15U A39U, in the data set with glucosamine-6-phosphate [1], the kcat was 0.00466 ± 0.00041 s⁻¹. In the data set with glucosamine-6-phosphate [2], the KM turned out to be 2280 ± 280 µM. Besides, the “self-cleavage kobs at 40 uM GlcN6P” value with glucosamine-6-phosphate [3] is 8.33e-05 ± 9.7e-06 s⁻¹. The “self-cleavage kobs at 160 uM GlcN6P” value in the data set with glucosamine-6-phosphate [4] was found to be 0.000251 ± 5.5e-05 s⁻¹. Also, the “self-cleavage kobs at 640 uM GlcN6P” value with glucosamine-6-phosphate [5] came out at 0.0011 ± 0.00013 s⁻¹. Further, the “self-cleavage kobs at 2500 uM GlcN6P” value in the data set with glucosamine-6-phosphate [6] came to 0.00233 ± 0.00043 s⁻¹. Moreover, in the data set with glucosamine-6-phosphate [7], the “self-cleavage kobs at 10000 uM GlcN6P” value was determined as 0.0038 ± 0.0004 s⁻¹.
